Laboratory results reported in article PMC12522135 (2025).

Tests used:
mouse serum albumin = mouse serum albumin (mouse, UniProt P07724 25-608); assay: ELISA
human serum albumin = human serum albumin (human, UniProt P02768 25-609); assay: ELISA

Sequence of mouse serum albumin (P07724 25-608): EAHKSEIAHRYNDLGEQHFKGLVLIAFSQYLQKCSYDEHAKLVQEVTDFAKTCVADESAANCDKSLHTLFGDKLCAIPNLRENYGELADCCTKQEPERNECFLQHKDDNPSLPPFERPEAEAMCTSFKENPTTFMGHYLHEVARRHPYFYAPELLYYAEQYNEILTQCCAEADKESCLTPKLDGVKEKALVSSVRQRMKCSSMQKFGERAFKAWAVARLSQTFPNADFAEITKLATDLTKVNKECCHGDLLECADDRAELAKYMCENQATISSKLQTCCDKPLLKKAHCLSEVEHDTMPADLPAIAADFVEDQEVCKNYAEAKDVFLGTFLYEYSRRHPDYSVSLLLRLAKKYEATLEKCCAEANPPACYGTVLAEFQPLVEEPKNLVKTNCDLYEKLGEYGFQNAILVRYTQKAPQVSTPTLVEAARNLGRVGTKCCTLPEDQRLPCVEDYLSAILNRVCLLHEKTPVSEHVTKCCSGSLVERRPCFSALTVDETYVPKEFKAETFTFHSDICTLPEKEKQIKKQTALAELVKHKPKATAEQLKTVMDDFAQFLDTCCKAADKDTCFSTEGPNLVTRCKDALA

B1: Bilayer HEX-D3-ASA (designed binder)
chain: DLGKKLLQAARAGQLDEVRELLKAGADVNAKDQEGITPLHVAAHQGHLEIVEVLLKAGADVNAKDVWGRTPLHLAAWRGHLEIVEVLLKAGADVNAKDHAGATPLHAAALSGHLEIVEVLLKAGADVNAQDKSGKTPADLAARAGHQDIAEVLQKAAGGGSGGGSGGGSGGGSDLGKKLLEAARAGQDDEVRELLKAGADVNAKDYFSHTPLHLAARNGHLKIVEVLLKAGADVNAKDFAGKTPLHLAANEGHLEIVEVLLKAGADVNAQDIFGKTPADIAADAGHEDIAEVLQKAAGGGSGGGSGGGSGGGSGELKAIAQELKAIAKELKAIAWELKAIAQGAGGGGSGGGSGGGSGGGSDLGKKLLQAARAGQLDEVRELLKAGADVNAKDQEGITPLHVAAHQGHLEIVEVLLKAGADVNAKDVWGRTPLHLAAWRGHLEIVEVLLKAGADVNAKDHAGATPLHAAALSGHLEIVEVLLKAGADVNAQDKSGKTPADLAARAGHQDIAEVLQKAAGGGSGGGSGGGSGGGSDLGKKLLQAARAGQLDEVRELLKAGADVNAKDQEGITPLHVAAHQGHLEIVEVLLKAGADVNAKDVWGRTPLHLAAWRGHLEIVEVLLKAGADVNAKDHAGATPLHAAALSGHLEIVEVLLKAGADVNAQDKSGKTPADLAARAGHQDIAEVLQKAA
- Kd (mouse serum albumin): 0.124 µM
- Kd (human serum albumin): 0.0079 µM

B2: HEX-D3-ASA (designed binder)
chain: DLGKKLLEAARAGQDDEVRELLKAGADVNAKDYFSHTPLHLAARNGHLKIVEVLLKAGADVNAKDFAGKTPLHLAANEGHLEIVEVLLKAGADVNAQDIFGKTPADIAADAGHEDIAEVLQKAAGGGSGGGSGGGSGGGSGELKAIAQELKAIAKELKAIAWELKAIAQGAGGGGSGGGSGGGSGGGSDLGKKLLQAARAGQLDEVRELLKAGADVNAKDQEGITPLHVAAHQGHLEIVEVLLKAGADVNAKDVWGRTPLHLAAWRGHLEIVEVLLKAGADVNAKDHAGATPLHAAALSGHLEIVEVLLKAGADVNAQDKSGKTPADLAARAGHQDIAEVLQKAA
- Kd (mouse serum albumin): 0.0244 µM
- Kd (human serum albumin): 0.00282 µM
